Experimental data taken from the RNAGym collection of RNA variant scans (doi:10.1021/acssynbio.7b00057).

B1: Pistol ribozyme (parent)
chain: GGGUCGUUGUUCCAUAAUCGCGUGGAUAUGGCACGCAAGUUUCUACCGGGCACCGUAAAUGUCCGACUGGAGCCGUUCGGGCGGCUAUAAACAGACCUCAGGCCCGAAGCGUGGCGGCACCUGCCGCCGGUGGUAAAAAAGAUCGGAAGAGCACACGUCU

Variants of: B1
Experiment: aptazyme ON/OFF ratio, guanine; higher = stronger switching; co-transcriptional cleavage with and without guanine

Point of comparison: GGGUCGUUCGACCAUAAUCGCGUGGAUAUGGCACGCAAGUUUCUACCGGGCACCGUAAAUGUCCGACUGGAGCCGUUCGGGCGGCUAUAAACAGACCUCAGGCCCGAAGCGUGGCGGCACCUGCCGCCGGUGGUAAAAAAGAUCGGAAGAGCACACGUCU [G9C U10G U11A], “aptazyme ON/OFF ratio” value 1.08. Against it:
- GGGUCGUUCGUCGAUAAUCGCGUGGAUAUGGCACGCAAGUUUCUACCGGGCACCGUAAAUGUCCGACUGGAGCCGUUCGGGCGGCUAUAAACAGACCUCAGGCCCGAAGCGUGGCGGCACCUGCCGCCGGUGGUAAAAAAGAUCGGAAGAGCACACGUCU [G9C U10G C13G] — higher, 1.1
- GGGUCGUUCGUCUAUAAUCGCGUGGAUAUGGCACGCAAGUUUCUACCGGGCACCGUAAAUGUCCGACUGGAGCCGUUCGGGCGGCUAUAAACAGACCUCAGGCCCGAAGCGUGGCGGCACCUGCCGCCGGUGGUAAAAAAGAUCGGAAGAGCACACGUCU [G9C U10G C13U] — higher, 1.49
- GGGUCGUUCGAGAAUAAUCGCGUGGAUAUGGCACGCAAGUUUCUACCGGGCACCGUAAAUGUCCGACUGGAGCCGUUCGGGCGGCUAUAAACAGACCUCAGGCCCGAAGCGUGGCGGCACCUGCCGCCGGUGGUAAAAAAGAUCGGAAGAGCACACGUCU [G9C U10G U11A C12G C13A] — higher, 1.11
- GGGUCGUUCGAGUAUAAUCGCGUGGAUAUGGCACGCAAGUUUCUACCGGGCACCGUAAAUGUCCGACUGGAGCCGUUCGGGCGGCUAUAAACAGACCUCAGGCCCGAAGCGUGGCGGCACCUGCCGCCGGUGGUAAAAAAGAUCGGAAGAGCACACGUCU [G9C U10G U11A C12G C13U] — lower, 1.07
- GGGUCGUUCGAGGAUAAUCGCGUGGAUAUGGCACGCAAGUUUCUACCGGGCACCGUAAAUGUCCGACUGGAGCCGUUCGGGCGGCUAUAAACAGACCUCAGGCCCGAAGCGUGGCGGCACCUGCCGCCGGUGGUAAAAAAGAUCGGAAGAGCACACGUCU [G9C U10G U11A C12G C13G] — higher, 1.24
- GGGUCGUUCGCGCAUAAUCGCGUGGAUAUGGCACGCAAGUUUCUACCGGGCACCGUAAAUGUCCGACUGGAGCCGUUCGGGCGGCUAUAAACAGACCUCAGGCCCGAAGCGUGGCGGCACCUGCCGCCGGUGGUAAAAAAGAUCGGAAGAGCACACGUCU [G9C U10G U11C C12G] — higher, 1.17
- GGGUCGUUCGCACAUAAUCGCGUGGAUAUGGCACGCAAGUUUCUACCGGGCACCGUAAAUGUCCGACUGGAGCCGUUCGGGCGGCUAUAAACAGACCUCAGGCCCGAAGCGUGGCGGCACCUGCCGCCGGUGGUAAAAAAGAUCGGAAGAGCACACGUCU [G9C U10G U11C C12A] — higher, 1.37
- GGGUCGUUCGCUCAUAAUCGCGUGGAUAUGGCACGCAAGUUUCUACCGGGCACCGUAAAUGUCCGACUGGAGCCGUUCGGGCGGCUAUAAACAGACCUCAGGCCCGAAGCGUGGCGGCACCUGCCGCCGGUGGUAAAAAAGAUCGGAAGAGCACACGUCU [G9C U10G U11C C12U] — the same, 1.08
- GGGUCGUUCGCUUAUAAUCGCGUGGAUAUGGCACGCAAGUUUCUACCGGGCACCGUAAAUGUCCGACUGGAGCCGUUCGGGCGGCUAUAAACAGACCUCAGGCCCGAAGCGUGGCGGCACCUGCCGCCGGUGGUAAAAAAGAUCGGAAGAGCACACGUCU [G9C U10G U11C C12U C13U] — higher, 1.24
- GGGUCGUUCGCUGAUAAUCGCGUGGAUAUGGCACGCAAGUUUCUACCGGGCACCGUAAAUGUCCGACUGGAGCCGUUCGGGCGGCUAUAAACAGACCUCAGGCCCGAAGCGUGGCGGCACCUGCCGCCGGUGGUAAAAAAGAUCGGAAGAGCACACGUCU [G9C U10G U11C C12U C13G] — higher, 1.09
- GGGUCGUUCGCUAAUAAUCGCGUGGAUAUGGCACGCAAGUUUCUACCGGGCACCGUAAAUGUCCGACUGGAGCCGUUCGGGCGGCUAUAAACAGACCUCAGGCCCGAAGCGUGGCGGCACCUGCCGCCGGUGGUAAAAAAGAUCGGAAGAGCACACGUCU [G9C U10G U11C C12U C13A] — higher, 1.2
- GGGUCGUUCGCCGAUAAUCGCGUGGAUAUGGCACGCAAGUUUCUACCGGGCACCGUAAAUGUCCGACUGGAGCCGUUCGGGCGGCUAUAAACAGACCUCAGGCCCGAAGCGUGGCGGCACCUGCCGCCGGUGGUAAAAAAGAUCGGAAGAGCACACGUCU [G9C U10G U11C C13G] — lower, 1.03
- GGGUCGUUCGCCUAUAAUCGCGUGGAUAUGGCACGCAAGUUUCUACCGGGCACCGUAAAUGUCCGACUGGAGCCGUUCGGGCGGCUAUAAACAGACCUCAGGCCCGAAGCGUGGCGGCACCUGCCGCCGGUGGUAAAAAAGAUCGGAAGAGCACACGUCU [G9C U10G U11C C13U] — lower, 1.06
- GGGUCGUUCGCCAAUAAUCGCGUGGAUAUGGCACGCAAGUUUCUACCGGGCACCGUAAAUGUCCGACUGGAGCCGUUCGGGCGGCUAUAAACAGACCUCAGGCCCGAAGCGUGGCGGCACCUGCCGCCGGUGGUAAAAAAGAUCGGAAGAGCACACGUCU [G9C U10G U11C C13A] — higher, 1.24
- GGGUCGUUCGGCCAUAAUCGCGUGGAUAUGGCACGCAAGUUUCUACCGGGCACCGUAAAUGUCCGACUGGAGCCGUUCGGGCGGCUAUAAACAGACCUCAGGCCCGAAGCGUGGCGGCACCUGCCGCCGGUGGUAAAAAAGAUCGGAAGAGCACACGUCU [G9C U10G U11G] — higher, 1.09
- GGGUCGUUCGCCCAUAAUCGCGUGGAUAUGGCACGCAAGUUUCUACCGGGCACCGUAAAUGUCCGACUGGAGCCGUUCGGGCGGCUAUAAACAGACCUCAGGCCCGAAGCGUGGCGGCACCUGCCGCCGGUGGUAAAAAAGAUCGGAAGAGCACACGUCU [G9C U10G U11C] — lower, 1.06
- GGGUCGUUCGAUCAUAAUCGCGUGGAUAUGGCACGCAAGUUUCUACCGGGCACCGUAAAUGUCCGACUGGAGCCGUUCGGGCGGCUAUAAACAGACCUCAGGCCCGAAGCGUGGCGGCACCUGCCGCCGGUGGUAAAAAAGAUCGGAAGAGCACACGUCU [G9C U10G U11A C12U] — lower, 1.04
